Test results taken from patent publication US20110217291A1 (ZymoGenetics, published 2011).

B1: untagged recombinant soluble human FcγRIA (receptor)
chain: QVDTTKAVITLQPPWVSVFQEETVTLHCEVLHLPGSSSTQWFLNGTATQTSTPSYRITSASVNDSGEYRCQRGLSGRSDPIQLEIHRGWLLLQVSSRVFTEGEPLALRCHAWKDKLVYNVLYYRNGKAFKFFHWNSNLTILKTNISHNGTYHCSGMGKHRYTSAGISVTVKELFPAPVLNASVTSPLLEGNLVTLSCETKLLLQRPGLQLYFSFYMGSKTLRGRNTSSEYQILTARREDSGLYWCEAATEDGNVLKRSPELELQVLG
modifications: N-terminal pyro-glutamic acid, converted from the glutamine at position 16
B2: FcγRIIA/RIA-CH6 (soluble hybrid receptor: first Ig domain of FcγRIIA followed by second and third Ig domains of FcγRIA, C-terminal six His tag) (receptor)
chain: AAPPKAVLKLEPPWINVLQEDSVTLTCQGARSPESDSIQWFHNGNLIPTHTQPSYRFKANNNDSGEYTCQTGQTSLSDPVHLTVLSEWLLLQVSSRVFTEGEPLALRCHAWKDKLVYNVLYYRNGKAFKFFHWNSNLTILKTNISHNGTYHCSGMGKHRYTSAGISVTVKELFPAPVLNASVTSPLLEGNLVTLSCETKLLLQRPGLQLYFSFYMGSKTLRGRNTSSEYQILTARREDSGLYWCEAATEDGNVLKRSPELELQVLGGSGGHHHHHH
B3: FcγRIIIA/RIA-CH6 (soluble hybrid receptor: first Ig domain of FcγRIIIA followed by second and third Ig domains of FcγRIA, C-terminal six His tag) (receptor)
chain: EDLPKAVVFLEPQWYRVLEKDSVTLKCQGAYSPEDNSTQWFHNESLISSQASSYFIDAATVDDSGEYRCQTNLSTLSDPVQLEVHIGWLLLQVSSRVFTEGEPLALRCHAWKDKLVYNVLYYRNGKAFKFFHWNSNLTILKTNISHNGTYHCSGMGKHRYTSAGISVTVKELFPAPVLNASVTSPLLEGNLVTLSCETKLLLQRPGLQLYFSFYMGSKTLRGRNTSSEYQILTARREDSGLYWCEAATEDGNVLKRSPELELQVLGGSGGHHHHHH

target: rabbit polyclonal anti-OVA antibodies; experiment: cell-based or functional assay

Row | Binder | IC50 (read off the curve); TNF-α secretion by MC/9 mast cells stimulated with anti-OVA/OVA immune complexes [pmol]
1 | B1 | ~1
2 | B2 | ~2
3 | B3 | ~1

target: rabbit polyclonal anti-OVA antibodies; experiment: cell-based or functional assay; remark: another data set of the same source

Row | Binder | IC50 (read off the curve); IL-6 secretion by MC/9 mast cells stimulated with anti-OVA/OVA immune complexes [pmol]
4 | B1 | ~1
5 | B2 | ~2
6 | B3 | ~2

target: rabbit polyclonal anti-OVA antibodies; experiment: cell-based or functional assay; remark: another data set of the same source

Row | Binder | IC50 (read off the curve); MCP-1 secretion by MC/9 mast cells stimulated with anti-OVA/OVA immune complexes [pmol]
7 | B1 | ~2
8 | B2 | ~2
9 | B3 | ~2

target: rabbit polyclonal anti-OVA antibodies; experiment: cell-based or functional assay; remark: another data set of the same source

Row | Binder | IC50 (read off the curve); IL-13 secretion by MC/9 mast cells stimulated with anti-OVA/OVA immune complexes [pmol]
10 | B1 | ~1
11 | B2 | ~2
12 | B3 | ~1
